# Results from the RNAGym collection of RNA variant scans (doi:10.7554/elife.80360).
# B1: CPEB3 Ribozyme (parent)
# chain: GGGGGCCACAGCAGAAGCGUUCACGUCGCGGCCCCUGUCAGAUUCUGGUGAAUCUGCGAAUUCUGCUGU
# Variants of: B1
# Assay: self-cleavage, relative activity (ratio to wild type); higher = more cleavage; co-transcriptional
row,Variant,self-cleavage
1,G1A,0.104
2,G1A A8U,0.0637
3,G1A A10C,0.117
4,G1A A13C,0.0638
5,G1A A13G,0.0336
6,G1A A13U,0.0681
7,G1A A15C,0.113
8,G1A A15G,0.159
9,G1A A15U,0.105
10,G1A A16G,0.0235
11,G1A A23U,0.184
12,G1A A40C,0.028
13,G1A A40U,0.0506
14,G1A A42G,0.0249
15,G1A A51U,0.136
16,G1A A52C,0.113
17,G1A A52G,0.0619
18,G1A A52U,0.0595
19,G1A A59C,0.0603
20,G1A A59G,0.167
21,G1A A59U,0.0722
22,G1A A60C,0.0326
23,G1A C6A,0.0849
24,G1A C6G,0.0647

row,Variant,self-cleavage
1,G1A C6U,0.105
2,G1A C7G,0.0966
3,G1A C9A,0.145
4,G1A C9G,0.0894
5,G1A C9U,0.19
6,G1A C12A,0.0768
7,G1A C12G,0.0843
8,G1A C18A,0.0308
9,G1A C18G,0.0371
10,G1A C18U,0.0601
11,G1A C22U,0.0977
12,G1A C24A,0.0536
13,G1A C24G,0.163
14,G1A C24U,0.0626
15,G1A C27A,0.0748
16,G1A C27U,0.0438
17,G1A C29G,0.0465
18,G1A C29U,0.0423
19,G1A C32A,0.0486
20,G1A C32G,0.0331
21,G1A C32U,0.12
22,G1A C33G,0.0474
23,G1A C33U,0.0123
24,G1A C34A,0.111

row,Variant,self-cleavage
1,G1A C34G,0.0238
2,G1A C34U,0.0949
3,G1A C35A,0.0188
4,G1A C35U,0.0752
5,G1A C39U,0.0531
6,G1A C45G,0.0789
7,G1A C45U,0.0709
8,G1A C54A,0.0906
9,G1A C54G,0.0801
10,G1A C57A,0.0488
11,G1A C57G,0.0693
12,G1A C57U,0.0557
13,G1A C63A,0.1
14,G1A C63G,0.0342
15,G1A C63U,0.0639
16,G1A C66G,0.0767
17,G1A G3C,0.0286
18,G1A G4A,0.28
19,G1A G4C,0.0471
20,G1A G5A,0.15
21,G1A G5C,0.0678
22,G1A G5U,0.0571
23,G1A G11A,0.136
24,G1A G11U,0.0575

row,Variant,self-cleavage
1,G1A G14A,0.0754
2,G1A G14C,0.0574
3,G1A G17A,0.0759
4,G1A G17U,0.047
5,G1A G25C,0.0807
6,G1A G28C,0.0192
7,G1A G28U,0.0362
8,G1A G30A,0.0887
9,G1A G30C,0.0357
10,G1A G31A,0.0627
11,G1A G31C,0.0308
12,G1A G37C,0.0318
13,G1A G37U,0.104
14,G1A G41C,0.0331
15,G1A G41U,0.0947
16,G1A G47A,0.104
17,G1A G47C,0.0423
18,G1A G47U,0.104
19,G1A G48A,0.0895
20,G1A G48U,0.045
21,G1A G50A,0.114
22,G1A G50U,0.0729
23,G1A G56A,0.0858
24,G1A G56C,0.0841

row,Variant,self-cleavage
1,G1A G56U,0.103
2,G1A G58A,0.0724
3,G1A G58C,0.126
4,G1A G65A,0.0429
5,G1A G65C,0.0479
6,G1A G65U,0.106
7,G1A G68A,0.136
8,G1A G68C,0.222
9,G1A G68U,0.159
10,G1A U20A,0.0538
11,G1A U20C,0.0855
12,G1A U20G,0.0728
13,G1A U21A,0.132
14,G1A U21G,0.0454
15,G1A U26A,0.077
16,G1A U26C,0.138
17,G1A U26G,0.0674
18,G1A U36A,0.0492
19,G1A U36C,0.0487
20,G1A U36G,0.0321
21,G1A U38C,0.0492
22,G1A U44A,0.0757
23,G1A U44C,0.135
24,G1A U46A,0.134

row,Variant,self-cleavage
1,G1A U46C,0.0905
2,G1A U46G,0.0453
3,G1A U49A,0.075
4,G1A U49G,0.13
5,G1A U55A,0.059
6,G1A U55C,0.0976
7,G1A U61C,0.0531
8,G1A U62A,0.0846
9,G1A U64A,0.134
10,G1A U64G,0.0694
11,G1A U67C,0.121
12,G1A U69A,0.0727
13,G1A U69C,0.187
14,G1A U69G,0.23
15,G1C,0.219
16,G1C A8C,0.221
17,G1C A8U,0.227
18,G1C A10G,0.21
19,G1C A13C,0.143
20,G1C A13G,0.183
21,G1C A13U,0.155
22,G1C A15C,0.266
23,G1C A15G,0.228
24,G1C A16G,0.254

row,Variant,self-cleavage
1,G1C A16U,0.159
2,G1C A23C,0.25
3,G1C A23G,0.149
4,G1C A23U,0.222
5,G1C A40C,0.231
6,G1C A40G,0.268
7,G1C A42C,0.274
8,G1C A42G,0.152
9,G1C A51C,0.149
10,G1C A51U,0.192
11,G1C A52C,0.2
12,G1C A52G,0.24
13,G1C A52U,0.201
14,G1C A59C,0.27
15,G1C A59G,0.26
16,G1C A59U,0.147
17,G1C A60C,0.0756
18,G1C A60G,0.273
19,G1C C6A,0.26
20,G1C C6G,0.658
21,G1C C6U,0.282
22,G1C C7A,0.144
23,G1C C7G,0.128
24,G1C C9G,0.203

row,Variant,self-cleavage
1,G1C C9U,0.246
2,G1C C12A,0.164
3,G1C C12G,0.238
4,G1C C12U,0.252
5,G1C C22A,0.0757
6,G1C C22G,0.0703
7,G1C C24A,0.0947
8,G1C C27A,0.211
9,G1C C27G,0.124
10,G1C C27U,0.131
11,G1C C29G,0.106
12,G1C C29U,0.105
13,G1C C32A,0.279
14,G1C C32U,0.327
15,G1C C33A,0.197
16,G1C C33G,0.118
17,G1C C33U,0.282
18,G1C C34A,0.152
19,G1C C34G,0.159
20,G1C C34U,0.236
21,G1C C35A,0.069
22,G1C C35G,0.161
23,G1C C35U,0.167
24,G1C C39G,0.217

row,Variant,self-cleavage
1,G1C C39U,0.227
2,G1C C45A,0.252
3,G1C C45G,0.182
4,G1C C45U,0.24
5,G1C C54G,0.321
6,G1C C57A,0.116
7,G1C C57G,0.104
8,G1C C63A,0.199
9,G1C C63U,0.164
10,G1C C66A,0.226
11,G1C C66U,0.172
12,G1C G2A,0.408
13,G1C G3A,0.174
14,G1C G3U,0.0766
15,G1C G4A,0.225
16,G1C G4C,0.216
17,G1C G5U,0.114
18,G1C G11A,0.14
19,G1C G11C,0.165
20,G1C G11U,0.164
21,G1C G14A,0.152
22,G1C G14U,0.164
23,G1C G17A,0.124
24,G1C G17C,0.0857

row,Variant,self-cleavage
1,G1C G17U,0.155
2,G1C G19A,0.086
3,G1C G25A,0.0736
4,G1C G25C,0.103
5,G1C G25U,0.0853
6,G1C G28C,0.12
7,G1C G28U,0.0985
8,G1C G30A,0.192
9,G1C G30C,0.174
10,G1C G31A,0.272
11,G1C G31C,0.0643
12,G1C G31U,0.266
13,G1C G37C,0.125
14,G1C G37U,0.101
15,G1C G41A,0.19
16,G1C G41C,0.23
17,G1C G47A,0.242
18,G1C G47C,0.213
19,G1C G47U,0.268
20,G1C G48U,0.241
21,G1C G50U,0.169
22,G1C G56A,0.223
23,G1C G56C,0.186
24,G1C G58A,0.172

row,Variant,self-cleavage
1,G1C G58C,0.267
2,G1C G58U,0.248
3,G1C G65U,0.212
4,G1C G68A,0.304
5,G1C G68C,0.219
6,G1C G68U,0.297
7,G1C U20C,0.098
8,G1C U20G,0.131
9,G1C U21C,0.184
10,G1C U21G,0.244
11,G1C U26C,0.162
12,G1C U26G,0.152
13,G1C U36A,0.0531
14,G1C U36C,0.177
15,G1C U38C,0.231
16,G1C U38G,0.112
17,G1C U43A,0.202
18,G1C U43C,0.245
19,G1C U43G,0.205
20,G1C U44A,0.231
21,G1C U44G,0.151
22,G1C U46C,0.248
23,G1C U49C,0.116
24,G1C U49G,0.275

row,Variant,self-cleavage
1,G1C U53A,0.225
2,G1C U53G,0.232
3,G1C U55A,0.189
4,G1C U55C,0.167
5,G1C U61C,0.141
6,G1C U61G,0.271
7,G1C U62A,0.279
8,G1C U62G,0.177
9,G1C U64A,0.236
10,G1C U64C,0.179
11,G1C U67A,0.193
12,G1C U67C,0.19
13,G1C U69A,0.182
14,G1U,0.11
15,G1U A8C,0.0263
16,G1U A8U,0.0804
17,G1U A10U,0.127
18,G1U A13U,0.122
19,G1U A15C,0.136
20,G1U A15G,0.191
21,G1U A16C,0.022
22,G1U A23U,0.108
23,G1U A40C,0.0668
24,G1U A42C,0.0921

row,Variant,self-cleavage
1,G1U A42G,0.0976
2,G1U A42U,0.0891
3,G1U A51C,0.114
4,G1U A51G,0.126
5,G1U A51U,0.148
6,G1U A52G,0.167
7,G1U A52U,0.129
8,G1U A59C,0.0892
9,G1U A59G,0.148
10,G1U A59U,0.114
11,G1U A60C,0.0797
12,G1U C6A,0.0884
13,G1U C6G,0.126
14,G1U C6U,0.0906
15,G1U C7A,0.0722
16,G1U C7G,0.127
17,G1U C9G,0.233
18,G1U C9U,0.219
19,G1U C12G,0.106
20,G1U C12U,0.124
21,G1U C18G,0.115
22,G1U C18U,0.104
23,G1U C22A,0.0628
24,G1U C22G,0.0638

row,Variant,self-cleavage
1,G1U C22U,0.102
2,G1U C24G,0.0268
3,G1U C27A,0.0657
4,G1U C27G,0.0589
5,G1U C29A,0.111
6,G1U C29G,0.0597
7,G1U C29U,0.0573
8,G1U C32A,0.201
9,G1U C32G,0.09
10,G1U C32U,0.157
11,G1U C33A,0.176
12,G1U C34A,0.184
13,G1U C34G,0.123
14,G1U C35A,0.0801
15,G1U C35U,0.113
16,G1U C39A,0.123
17,G1U C39U,0.0961
18,G1U C45G,0.134
19,G1U C45U,0.152
20,G1U C54A,0.116
21,G1U C54G,0.099
22,G1U C57G,0.0901
